# Experimental data taken from patent US20220363718A1 (Bicycle, published 2022).
# *1 amine or outer side, *2 acyl side, *3 side chain or, on linkers, in order; H or OH if unused. Bridges are numbered along the chain shown (N, C = ends). Where no end group is shown, it is not given here. [ ]: non-standard residue; d: D form. The star is where a group is joined. X1 = N3CH2C(O)NH(CH2CH2O)3CH2CH2(CO), [N-]=[N+]=NCC(=O)NCCOCCOCCOCCC(=O)*; N3CH2C(O)NH(CH2CH2O)2CH2C(O) = [N-]=[N+]=NCC(=O)NCCOCCOCC(=O)*; TATA = O=C(CC[*:1])N1CN(C(=O)CC[*:2])CN(C(=O)CC[*:3])C1; Trp(1-Me) = Cn1cc(C[C@H](N)C(=O)O)c2ccccc21; Arg(Me2a) = CN(C)C(=N)NCCC[C@H](N)C(=O)O; Phe(4-F) = N[C@@H](Cc1ccc(F)cc1)C(=O)O; tBuAla = CC(C)(C)C[C@H](N)C(=O)O; NMeA = CN[C@@H](C)C(=O)O; Octanoyl = CCCCCCCC(=O)*
# B1: Example 251 (peptide)
# peptide: {N3CH2C(O)NH(CH2CH2O)2CH2C(O)}-C[NMeA][Trp(1-Me)][tBuAla]QDC[Trp(1-Me)][Arg(Me2a)]G[Phe(4-F)]C-NH2
# modifications: linker 1-7-12 via TATA; also: dimer: peptides clicked via N-terminal azido linker to N2,N6-dipent-4-ynoyl-L-lysine core (source also calls it trimeric)
# notes: Claim 16 speaks of a dimeric or trimeric moiety
# B2: Example 250 (peptide)
# peptide: X1-C[NMeA][Trp(1-Me)][tBuAla]QDC[Trp(1-Me)][Arg(Me2a)]G[Phe(4-F)]C-NH2
# modifications: linker 1-7-12 via TATA; also: trimer: three peptides clicked via N-terminal azido linker to N-but-3-yn-1-yl-N2,N6-dipent-4-ynoyl-L-lysinamide core
# notes: Trimer of identical bicyclic peptides on a tri-alkyne lysinamide core (formula with F3, S9)
# B3: Example 15 (peptide)
# peptide: Octanoyl-C[NMeA][Trp(1-Me)][tBuAla]QDC[Trp(1-Me)][Arg(Me2a)]G[Phe(4-F)]C-NH2
# modifications: linker 1-7-12 via TATA
# SMILES: CCCCCCCC(=O)N[C@H]1CSCCC(=O)N2CN3CN(C2)C(=O)CCSC[C@H](NC(=O)[C@H](CC(=O)O)NC(=O)[C@H](CCC(N)=O)NC(=O)[C@H](CC(C)(C)C)NC(=O)[C@H](Cc2cn(C)c4ccccc24)NC(=O)[C@H](C)N(C)C1=O)C(=O)N[C@@H](Cc1cn(C)c2ccccc12)C(=O)N[C@@H](CCCNC(=N)N(C)C)C(=O)NCC(=O)N[C@@H](Cc1ccc(F)cc1)C(=O)N[C@H](C(N)=O)CSCCC3=O
# B4: Example 16 (peptide)
# peptide: CQXLEDCXRGXC
# modifications: not fully specified; Ac-CQ[TrpMe]LEDC[TrpMe]RG[4-FPhe]C; 3 Cys cyclised with TATA
# Biological target: T1, Biotinylated human TSLP (hTSLP(29-159)-Avi) (human, biotinylated (C-terminal Avi-tag))
# T1 construct: also called thymic stromal lymphopoietin
# T1 sequence (chain, as listed by the source limits assumed): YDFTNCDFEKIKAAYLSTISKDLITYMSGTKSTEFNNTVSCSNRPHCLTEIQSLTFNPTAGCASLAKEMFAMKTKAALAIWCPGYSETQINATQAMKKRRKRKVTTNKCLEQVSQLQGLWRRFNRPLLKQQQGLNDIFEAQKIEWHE
# Assay: SPR, biotinylated hTSLP on streptavidin chip, peptide injected
row,Kd,Binder
1,0.14 nM,B1
2,0.027 nM,B2
3,340 nM,ACDWDWDYDCWLPCFAE (linker 2-10-14 via TATA; not fully specified (C-terminus)) [Example 208]
4,740 nM,CDWHWEYDCWLSCANSEFE (linker 1-9-13 via TATA; not fully specified (C-terminus)) [Example 227]
5,340 nM,ANDCVWHWEYDCWLDCA (linker 4-12-16 via TATA; not fully specified (C-terminus)) [Example 220]
6,2000 nM,Ac-CDWHWEYDCWLSC (linker 1-9-13 via TATA; not fully specified (C-terminus)) [Example 218]
7,320 nM,CDWHWEYDCWLSCEPETGQ (linker 1-9-13 via TATA; not fully specified (C-terminus)) [Example 216]
8,430 nM,ACDWNWTYDCWLDCAPI (linker 2-10-14 via TATA) [Example 206]
9,910 nM,DEQHHECDWHWEYDCWLSCA (linker 7-15-19 via TATA; not fully specified (C-terminus)) [Example 209]
10,1800 nM,ACQEHDWYCLLYQPECA (linker 2-9-16 via TATA; not fully specified (C-terminus)) [Example 231]
11,250 nM,ACDWHWEYDCWLSCDPSSKQA (linker 2-10-14 via TATA) [Example 212]
12,170 nM,ADGCEWNWAYDCWLGCA (linker 4-12-16 via TATA) [Example 201]
13,3000 nM,CDWHWEYDCWLSCYDNEMS (linker 1-9-13 via TATA; not fully specified (C-terminus)) [Example 223]
14,2300 nM,CDWHWEYDCWLSCGAGESS (linker 1-9-13 via TATA; not fully specified (C-terminus)) [Example 228]
15,240 nM,SPTEPPCDWHWEYDCWLSC (linker 7-15-19 via TATA; not fully specified (C-terminus)) [Example 215]
16,9900 nM,ACSLDPWSCHNWWTCA (linker 2-9-15 via TATA; not fully specified (C-terminus)) [Example 229]
17,8300 nM,ACDELDIPCWIFKTLCA (linker 2-9-16 via TATA; not fully specified (C-terminus)) [Example 232]
18,100 nM,AETCKWMWEYDCWLSCA (linker 4-12-16 via TATA) [Example 204]
19,320 nM,SQECQWNWTYDCWLGCA (linker 4-12-16 via TATA) [Example 203]
20,180 nM,SNATKQCDWHWEYDCWLSCA (linker 7-15-19 via TATA; not fully specified (C-terminus)) [Example 210]
21,450 nM,CDWHWEYDCWLSCGDMSVS (linker 1-9-13 via TATA; not fully specified (C-terminus)) [Example 222]
22,860 nM,NRSPSECDWHWEYDCWLSC (linker 7-15-19 via TATA; not fully specified (C-terminus)) [Example 217]
23,960 nM,ACALDPWVCPQWWDCA (linker 2-9-15 via TATA; not fully specified (C-terminus)) [Example 230]

# Biological target: TSLP (as used in the human PBMC assay) (UniProt Q969D9 29-159)
# Assay: cell-based or functional assay
"CCL17 % Inhibition @ 10 µM, 666 pM TSLP","CCL17 % Inhibition @ 10 µM, 50 pM TSLP","CCL17 % Inhibition @ 10 µM, 400 pM TSLP",Binder
33%,–,–,AHPCADLDPWTCPNWWLCA (linker 4-12-18 via TATA; not fully specified (C-terminus)) [Example 165]
-3%,–,–,ACDWHWEYDCWLSCA (linker 2-10-14 via TATA) [Example 199]
–,87%,85%,B1
33%,–,–,ACQWLEDCWRGFCA (linker 2-8-13 via TATA) [Example 68]
-10%,–,–,ACDWHWEYDCWLSCEPETGQA (linker 2-10-14 via TATA) [Example 221]
0%,–,–,ACTWLDDCWRGFCA (linker 2-8-13 via TATA; not fully specified (C-terminus)) [Example 76]
43%,–,–,CQWLEDCWRGXC (not fully specified; Ac-CQWLEDCWRG[3-MePhe]C; 3 Cys cyclised with TATA) [Example 74]
11%,–,–,RAPCPDLDPWTCSDWWLCA (linker 4-12-18 via TATA) [Example 187]
-18%,–,–,Ac-CQWLEDCWRGFC (linker 1-7-12 via TATA) [Example 79]
–,83%,59%,B2
0%,–,–,ACRDLDPWTCSSWWLCA (linker 2-10-16 via TATA; not fully specified (C-terminus)) [Example 164]
-11%,–,–,SPPCVWLDDCWRGFCA (linker 4-10-15 via TATA) [Example 73]
14%,–,–,CQWLEDCWRGXC (Ac-CQWLEDCWRG[4-ClPhe]C; 3 Cys cyclised with TATA) [Example 14]
–,58%,64%,B3
36%,–,–,YATTQVCRDLDPWTCSSWWLCA (linker 7-15-21 via TATA) [Example 171]
-4%,–,–,SHVCRDLDPWTCDSWWLCA (linker 4-12-18 via TATA) [Example 188]
47%,–,–,ACRDLDPWTCSSWWLCADGLYDA (linker 2-10-16 via TATA) [Example 193]
-42%,–,–,DHDCTWNWEYDCWLDCA (linker 4-12-16 via TATA) [Example 200]
52%,–,–,B4
-2%,–,–,ACHWLEDCWRGFCHLE (linker 2-8-13 via TATA; not fully specified (C-terminus)) [Example 75]
-1%,–,–,ACRDLDPWTCSSWWLCANV (linker 2-10-16 via TATA) [Example 186]
43%,–,–,"CQWLEDCWRGXC (not fully specified; Ac-CQWLEDCWRG[3,4diClPhe]C; 3 Cys cyclised with TATA) [Example 11]"
